T1: human MHC class II DR protein (DRA*0101/DRB1*0401), purified from PRIESS cells (human, UniProt P01903 26-254; P01911 30-266, limits assumed)
T1 construct: mature; also called HLA-DR protein; MHCII
T1 MHC II alpha: not shown
T1 MHC II beta: not shown

T2: HLA-DR (DRA*0101/DRB1*0401) on PRIESS cells (human, UniProt P01903 26-254; P01911 30-266)
T2 MHC II alpha: not shown
T2 MHC II beta: not shown


What was measured:
[1] = target: HLA-DR on MHH-CALL-4 cells (human); assay: cell-based or functional assay
[2] = target: T3, chimeric 0401-IE class II molecule on cells of transgenic mice (human/murine chimera); assay: cell-based or functional assay
[3] = target: T1, human MHC class II DR protein …; assay: SPR (BIAcore), MHCII on CM5 chip
[4] = target: T1, human MHC class II DR protein …; assay: SPR (BIAcore), 3 preparations on 3 chips (500, 4000, 3000 RU)
[5] = target: T1, human MHC class II DR protein …; assay: ELISA, coated antigen, Fab 100 ng/well, read at 370 nm
Protocol: After washing in PBS the anti-human IgG F(ab')_2-peroxidase-conjugate at a 1:10,000 dilution in TBS (supplemented with 5% w/v non-fat drymilk/0.05% v/v Tween 20) was added to each well for 1 h. Final washes were carried out in PBS followed the addition the substrate POD (Roche).

[6] = target: T1, human MHC class II DR protein …; assay: BiaCore, IgG4
Protocol: The affinities for anti-HLA antibody fragments of the invention were measured as follows. All measurements were conducted in HBS buffer (20 mM HEPES, 150 mM NaCl, pH 7.4) at a flow rate of 20 µl/min at 25° C. on a BIAcore3000 instrument (Biacore AB, Sweden). MHC class II DR protein (prepared as example 1) was diluted in 100 mM sodium acetate pH 4.5 to a concentration of […], and coupled to a CM5 chip (Biacore AB) using standard EDC-NHS coupling chemistry with subsequent ethanolamine treatment as manufacturers directions. The coating density of MHCII was adjusted to between 500 and 4000 RU. Affinities were measured by injection of 5 different concentrations of the different antibodies and using the standard software of the Biacore instrument. Regeneration of the coupled surface was achieved using 10 mM glycine pH 2.3 and 7.5 mM NaOH.

[7] = target: T2, HLA-DR (DRA*0101/DRB1*0401) on PRIESS …; assay: cell-based or functional assay
HLA-DR on ARH-77 cells = HLA-DR on ARH-77 cells (human); assay: cell-based or functional assay
[8] = target: HLA-DR on GRANTA-519 cells (human); assay: cell-based or functional assay
[9] = target: HLA-DR on KARPAS-422 cells (human); assay: cell-based or functional assay
[10] = target: HLA-DR on KARPAS-299 cells (human); assay: cell-based or functional assay
HLA-DR on DOHH-2 cells = HLA-DR on DOHH-2 cells (human); assay: cell-based or functional assay
HLA-DR on SR-786 cells = HLA-DR on SR-786 cells (human); assay: cell-based or functional assay
[11] = target: HLA-DR on MHH-CALL-4 cells (human); assay: cell-based or functional assay; remark: listed apart in the source
HLA-DR on MN-60 cells = HLA-DR on MN-60 cells (human); assay: cell-based or functional assay
HLA-DR on BJAB cells = HLA-DR on BJAB cells (human); assay: cell-based or functional assay
HLA-DR on RAJI cells = HLA-DR on RAJI cells (human); assay: cell-based or functional assay
HLA-DR on L-428 cells = HLA-DR on L-428 cells (human); assay: cell-based or functional assay
HLA-DR on HDLM-2 cells = HLA-DR on HDLM-2 cells (human); assay: cell-based or functional assay
HLA-DR on HD-MY-Z cells = HLA-DR on HD-MY-Z cells (human); assay: cell-based or functional assay
HLA-DR on KM-H2 cells = HLA-DR on KM-H2 cells (human); assay: cell-based or functional assay
HLA-DR on L1236 cells = HLA-DR on L1236 cells (human); assay: cell-based or functional assay
HLA-DR on BONNA-12 cells = HLA-DR on BONNA-12 cells (human); assay: cell-based or functional assay
HLA-DR on HC-1 cells = HLA-DR on HC-1 cells (human); assay: cell-based or functional assay
HLA-DR on NALM-1 cells = HLA-DR on NALM-1 cells (human); assay: cell-based or functional assay
HLA-DR on L-363 cells = HLA-DR on L-363 cells (human); assay: cell-based or functional assay
HLA-DR on EOL-1 cells = HLA-DR on EOL-1 cells (human); assay: cell-based or functional assay
HLA-DR on LP-1 cells = HLA-DR on LP-1 cells (human); assay: cell-based or functional assay
[12] = target: HLA-DR on RPMI-8226 cells (human); assay: cell-based or functional assay
[13] = target: HLA-DR on MHH-PREB-1 cells (human); assay: cell-based or functional assay
[14] = target: T1, human MHC class II DR protein …; assay: SPR (BIAcore), IgG4 over MHCII on CM5 chip
BSA = target: T4, BSA (bovine, UniProt P02769 25-607); assay: ELISA, purified coated protein, OD at 370 nm minus background
T4 construct: negative control antigen; also called bovine serum albumine
T4 sequence (P02769 25-607 limits assumed): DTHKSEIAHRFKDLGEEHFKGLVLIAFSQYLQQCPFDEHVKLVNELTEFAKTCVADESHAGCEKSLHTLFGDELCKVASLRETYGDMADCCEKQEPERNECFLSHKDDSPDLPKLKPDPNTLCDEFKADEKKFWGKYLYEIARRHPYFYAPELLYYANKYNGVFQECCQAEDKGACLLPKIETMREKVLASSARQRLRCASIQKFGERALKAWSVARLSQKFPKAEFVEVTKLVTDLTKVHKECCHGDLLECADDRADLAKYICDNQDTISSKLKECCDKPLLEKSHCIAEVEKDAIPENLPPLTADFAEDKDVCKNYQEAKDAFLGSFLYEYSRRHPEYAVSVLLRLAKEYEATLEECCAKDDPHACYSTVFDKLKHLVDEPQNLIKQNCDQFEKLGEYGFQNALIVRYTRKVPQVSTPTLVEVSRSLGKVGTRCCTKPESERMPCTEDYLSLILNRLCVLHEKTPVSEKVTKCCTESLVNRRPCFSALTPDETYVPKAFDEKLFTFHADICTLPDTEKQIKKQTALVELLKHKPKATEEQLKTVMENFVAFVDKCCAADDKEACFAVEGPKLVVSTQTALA

[15] = target: T3, chimeric 0401-IE class II molecule on …; assay: cell-based or functional assay; remark: listed apart in the source
[16] = target: T2, HLA-DR (DRA*0101/DRB1*0401) on PRIESS …; assay: cell-based or functional assay
[17] = target: T1, human MHC class II DR protein …; assay: SPR (BIAcore), scFv, chip density 500 RU MHCII

Binder	IC50 of inhibition of IL-2 secretion from T-Hyb 1 cells [2]	Maximum inhibition(%) of IL-2 secretion [2] [%]	Kd [6] [nM]	koff [6] [s⁻¹]	% Killing by mAb, 50 nM, 4 h [7] [%]	% Killing by mAb, 50 nM, 4 h (HLA-DR on ARH-77 cells) [%]	% Killing by mAb, 50 nM, 4 h [8] [%]	% Killing by mAb, 50 nM, 4 h [9] [%]	% Killing by mAb, 50 nM, 4 h [10] [%]	% Killing by mAb, 50 nM, 4 h (HLA-DR on DOHH-2 cells) [%]	% Killing by mAb, 50 nM, 4 h (HLA-DR on SR-786 cells) [%]	% Killing by mAb, 50 nM, 4 h [11] [%]	% Killing by mAb, 50 nM, 4 h (HLA-DR on MN-60 cells) [%]	% Killing by mAb, 50 nM, 4 h (HLA-DR on BJAB cells) [%]	% Killing by mAb, 50 nM, 4 h (HLA-DR on RAJI cells) [%]	% Killing by mAb, 50 nM, 4 h (HLA-DR on L-428 cells) [%]	% Killing by mAb, 50 nM, 4 h (HLA-DR on HDLM-2 cells) [%]	% Killing by mAb, 50 nM, 4 h (HLA-DR on HD-MY-Z cells) [%]	% Killing by mAb, 50 nM, 4 h (HLA-DR on KM-H2 cells) [%]	% Killing by mAb, 50 nM, 4 h (HLA-DR on L1236 cells) [%]	also measured
MS-GPC-8-6 Fab (Fab, V domains shown, Fab: VH-CH1 with FLAG tag and STREP tag II, VL-CL; VH residue 1 is Q in Fab) VH: QVQLKESGPALVKPTQTLTLTCTFSGFSLSTSGVGVGWIRQPPGKALEWLALIDWDDDKYYSTSLKTRLTISKDTSKNQVVLTMTNMDPVDTATYYCARSPRYRGAFDYWGQGTLVTVSS VL: DIVLTQPPSVSGAPGQRVTISCSGSSSNIGSNYVSWYQQLPGTAPKLLIYDNNQRPSGVPDRFSGSKSGTSASLAITGLQSEDEADYYCQSYDYDHYVFGGGTKLTVLG	20 nM (half the concentration of the Fab)	100																			maximum capacity to kill MHH-Call 4 cells [1]: 76%; Kd [3]: 58.6 nM; koff [3]: 0.00548 s⁻¹; kon [3]: 96000 M⁻¹ s⁻¹; Kd [4]: 58.6 nM; koff [4]: 0.0055 s⁻¹; kon [4]: 96000 M⁻¹ s⁻¹; ELISA signal [5]: 1.31
MS-GPC-8-6-13 IgG4 (antibody, V domains shown, human IgG4 (constant region EMBL K01316) with lambda constant region (EMBL M18645), from CHO-K1 cells; also called 305D3; IgG form of MS-GPC-8-6-13) VH: QVQLKESGPALVKPTQTLTLTCTFSGFSLSTSGVGVGWIRQPPGKALEWLALIDWDDDKYYSTSLKTRLTISKDTSKNQVVLTMTNMDPVDTATYYCARSPRYRGAFDYWGQGTLVTVSS VL: DIVLTQPPSVSGAPGQRVTISCSGSESNIGANYVTWYQQLPGTAPKLLIYDNNQRPSGVPDRFSGSKSGTSASLAITGLQSEDEADYYCQSYDYDHYVFGGGTKLTVLG	0.42 nM	100	0.5	3.3e-05	74	87	73	71	76	53	26	43	67	64	83	92	90	72	87	66	kon [6]: 71000 M⁻¹ s⁻¹; % Killing by mAb, 50 nM, 4 h (HLA-DR on BONNA-12 cells): 86%; % Killing by mAb, 50 nM, 4 h (HLA-DR on HC-1 cells): 93%; % Killing by mAb, 50 nM, 4 h (HLA-DR on NALM-1 cells): 65%; % Killing by mAb, 50 nM, 4 h (HLA-DR on L-363 cells): 19%; % Killing by mAb, 50 nM, 4 h (HLA-DR on EOL-1 cells): 53%; % Killing by mAb, 50 nM, 4 h (HLA-DR on LP-1 cells): 73%; % Killing by mAb, 50 nM, 4 h [12]: 19%; % Killing by mAb, 50 nM, 4 h [13]: 11%; Kd [14]: 0.5 nM; koff [14]: 3e-05 s⁻¹; kon [14]: 70000 M⁻¹ s⁻¹; binding result (BSA): no binding
MS-GPC-8-10-57 IgG4 (antibody, V domains shown, also called 1C7277; IgG form of MS-GPC-8-10-57) VH: QVQLKESGPALVKPTQTLTLTCTFSGFSLSTSGVGVGWIRQPPGKALEWLALIDWDDDKYYSTSLKTRLTISKDTSKNQVVLTMTNMDPVDTATYYCARSPRYRGAFDYWGQGTLVTVSS VL: DIVLTQPPSVSGAPGQRVTISCSGSESNIGNNYVQWYQQLPGTAPKLLIYDNNQRPSGVPDRFSGSKSGTSASLAITGLQSEDEADYYCQSYDLIRHVFGGGTKLTVLG	0.31 nM	100	0.3	0.00031	93	88	78	68	79	60	44	46	66	67	86	91	84	57	88	66	IC50 value for inhibition of T cell proliferation [15]: 11 nM; % Killing by mAb, 50 nM, 4 h (HLA-DR on BONNA-12 cells): 91%; % Killing by mAb, 50 nM, 4 h (HLA-DR on HC-1 cells): 86%; % Killing by mAb, 50 nM, 4 h (HLA-DR on NALM-1 cells): 78%; % Killing by mAb, 50 nM, 4 h (HLA-DR on L-363 cells): 24%; % Killing by mAb, 50 nM, 4 h (HLA-DR on EOL-1 cells): 49%; % Killing by mAb, 50 nM, 4 h (HLA-DR on LP-1 cells): 70%; % Killing by mAb, 50 nM, 4 h [12]: 26%; % Killing by mAb, 50 nM, 4 h [13]: 8%; EC50 of cell killing, IgG4 [16]: 1.1 nM; Kd [14]: 0.6 nM; koff [14]: 4e-05 s⁻¹; kon [14]: 70000 M⁻¹ s⁻¹; binding result (BSA): no binding
MS-GPC-1 scFv (scFv) EVQLKESGPALVKPTQTLTLTCTFSGFSLSTSGVGVGWIRQPPGKALEWLALIDWDDDKYYSTSLKTRLTISKDTSKNQVVLTMTNMDPVDTATYYCARQYGHRGGFDHWGQGTLVTVSSAGGGSGGGGSGGGGSGGGGSDIVLTQPPSVSGAPGQRVTISCSGSSSNIGSNYVSWYQQLPGTAPKLLIYDNNQRPSGVPDRFSGSKSGTSASLAITGLQSEDEADYYCQSYDFNESVFGGGTKLTVLG																					Kd [17]: 1500 nM; koff [17]: 0.061 s⁻¹; kon [17]: 41300 M⁻¹ s⁻¹

— patent US7521047 (GPC BIOTECH, dated 2009)
